The text below walks through data of patent US20140348747A1 (published 2014).

Experiment [1] addresses T1, NLpoly 5A2 (G15A/G35A/G51A/G67A/G71A).
T1 chain: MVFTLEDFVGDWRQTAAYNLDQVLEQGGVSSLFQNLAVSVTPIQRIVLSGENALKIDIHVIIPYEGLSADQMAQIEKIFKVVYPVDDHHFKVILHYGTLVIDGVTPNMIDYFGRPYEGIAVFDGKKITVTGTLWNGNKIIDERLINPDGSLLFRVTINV
Kind of experiment: luminescence complementation, one-site specific binding; replicate 2.

Experiment [2] shares this target. Kind of experiment: luminescence complementation, one-site specific binding; replicate 3.
The target is the same in experiment [3]. Description: luminescence complementation, one-site specific binding; replicate 1.
Experiment [4] deals with 5P+VT. Description: luminescence complementation.
The target in experiment [5] is 5P+VTG. Kind of experiment: luminescence complementation.
In experiment [6] the target is 5P+V. Kind of experiment: luminescence complementation.
Experiment [7] deals with T2, wild-type non-luminescent polypeptide (WT fragment of residues 1-156 of NanoLuc).
T2 chain: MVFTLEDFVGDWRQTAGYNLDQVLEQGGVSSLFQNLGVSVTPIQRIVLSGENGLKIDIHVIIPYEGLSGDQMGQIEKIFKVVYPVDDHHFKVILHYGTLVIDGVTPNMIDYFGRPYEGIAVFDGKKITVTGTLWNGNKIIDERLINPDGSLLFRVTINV
Description: luminescence complementation; PBS.

The target in experiment [8] is T2, wild-type non-luminescent polypeptide …. Description: luminescence complementation; NanoGlo.
The target in experiment [9] is T3, NLpoly 11S (12-A51T).
T3 chain: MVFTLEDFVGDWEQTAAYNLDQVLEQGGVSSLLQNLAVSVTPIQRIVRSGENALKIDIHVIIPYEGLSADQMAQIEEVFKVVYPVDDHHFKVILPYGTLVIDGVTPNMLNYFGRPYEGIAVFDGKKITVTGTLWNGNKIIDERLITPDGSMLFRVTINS
Kind of experiment: kinetics (koff/kon).

The target of experiment [10] is T2, wild-type non-luminescent polypeptide …. Kind of experiment: luminescence complementation; average HeLa, HEK293, CHO lysates.
For experiment [11] the target is unchanged. Description: kinetics (koff/kon).

B1: NLpep86 (peptide)
peptide: Ac-VSGWRLFKKIS-NH2
With B1, the values for the Kd in [1], in experiment [2] and in [3] were 0.11 µM, 0.0933 µM and 0.0991 µM, respectively.

B2: NLpep80 (peptide)
peptide: Ac-VSGWRLFKKISN-NH2
With B2, the values for the Kd in [4], in [5] and in experiment [6] were 0.0096 µM, 0.0075 µM and 0.0103 µM, respectively.

B3: NLpepWT (peptide)
peptide: GVTGWRLCERILA
Take B3: the Kd in [7] turned out to be 1.34 µM; in [8], 20.6 µM; in experiment [9], 629 µM; in [10] it was 8.35 µM.

B4: NLpep81 (peptide)
peptide: Ac-SGWRLFKKISN-NH2
Turning to B4, the Kd in [4] amounted to 0.218 µM; in [5], 0.283 µM; in experiment [6], 0.15 µM.

B5: NLpep82 (peptide)
peptide: Ac-GWRLFKKISN-NH2
Take B5: the figures for the equilibrium dissociation constant (Kd) in experiment [4], in experiment [5] and in [6] were 0.198 µM, 0.273 µM and 0.128 µM, respectively.

B6: NLpep79 (peptide)
peptide: NVTGYRLFKKISN
As for B6, the Kd in experiment [7] was 0.487 µM; in experiment [8], 2.89 µM; in experiment [11], 5580 µM; in experiment [9] it was 42 µM; in experiment [10] it was 5.13 µM.
